# Source: US20110300138A1 (published 2011)
# B1: K1-70 IgG (antibody, V domains shown)
# VH: EVQLVQSGAEVKKPGQSLKISCKASGYSLTDNWIGWVRQKPGKGLEWMGIIYPGDSDTRYSPSFQGQVTISADKSINTAYLQWSSLKASDTAIYYCVGLDWNYNPLRYWGPGTLVTVSS
# VL: QSVLTQPPSVSAAPGQKVTISCSGSSSDIGSNYVSWYQQFPGTAPKLLIYDNNKRPSAIPDRFSGSKSGTSATLGITGLQTGDEADYYCGTWDSRLGIAVFGGGTQLTVLG
# notes: Human IgG1 lambda purified from hetero-hybridoma supernatant; also called human monoclonal autoantibody to the TSHR with TSH antagonist activity
# B2: K1-70 Fab (Fab, V domains shown)
# VH: B1 VH
# VL: B1 VL
# B3: K1-18 IgG (antibody, V domains shown)
# VH: EVQLVQSGAEVKKPGESLKISCKGSGYSFTNYWIGWVRQMPGKGLEWMGIIYPYDSDTRYSPSFEGQVTISADKSIRTAYLHWSSLKASDTAMYYCVRPRDGSYPYDAFDIWGQGTMVTVSS
# VL: EIVLTQSPGTLSLSPGERATLSCRASQSVSNNYLAWYQQKPGQAPRLLIYGASSRATGIPDRFSGSGSGTDFTLTISRLEPEDFAVYYCQHCGSSLRAFGQGTKVEIKR
# notes: Human IgG1 kappa purified from hetero-hybridoma supernatant; also called human monoclonal autoantibody to the TSHR with TSH agonist activity
# B4: K1-18 Fab (Fab, V domains shown)
# VH: B3 VH
# VL: B3 VL
# Target: T1, human TSH receptor (full length), coated on tubes (human, UniProt P16473 22-764)
# T1 construct: TSHR coated tubes as described in WO2004/050708A2; The receptor is full length and held on plastic tubes through a mouse MAb to the TSHR; also called thyroid stimulating hormone receptor
# Experiment: inhibition of 125I-K1-70 Fab (competitor) binding to TSHR coated tubes; 100 µg/mL in HBD serum pool
# Experimental: (§1) Binding inhibition assays were carried out using TSHR coated tubes as described in WO2004/050708A2. […] After aspiration, the tubes were washed and 100 μL of ¹²⁵I-labelled protein (5×10⁴ cpm) added and incubated for 1 hour at room temperature with shaking. The tubes were then aspirated, washed and counted in a gamma counter. Inhibition of labelled protein binding was calculated as 100×[1−(cpm bound in the presence of test material/cpm bound in the presence of control material)].
row,Inhibition of binding (%),Binder
1,97.7,B1
2,96.3,B2
3,96,B3
4,85.7,B4

# Target: T1, human TSH receptor (full length), …
# Experiment: inhibition of 125I-K1-70 Fab (competitor) binding to TSHR coated tubes; 0.03 µg/mL in assay buffer
# Experimental: as §1
row,Inhibition of binding (%),Binder
1,89,B1
2,89,B2
3,63.1,B3
4,38.8,B4

# Target: T1, human TSH receptor (full length), …
# Experiment: inhibition of 125I-K1-70 Fab (competitor) binding to TSHR coated tubes; 0.01 µg/mL in assay buffer
# Experimental: as §1
row,Inhibition of binding (%),Binder
1,66.2,B1
2,75.6,B2
3,30.3,B3
4,16.7,B4

# Target: T1, human TSH receptor (full length), …
# Experiment: inhibition of 125I-K1-70 Fab (competitor) binding to TSHR coated tubes; 0.3 µg/mL in HBD serum pool
# Experimental: as §1
row,Inhibition of binding (%),Binder
1,97,B1
2,91.4,B2
3,77.7,B3
4,63.9,B4

# Target: T1, human TSH receptor (full length), …
# Experiment: inhibition of 125I-K1-70 Fab (competitor) binding to TSHR coated tubes; 0.001 µg/mL in HBD serum pool
# Experimental: as §1
row,Inhibition of binding (%),Binder
1,-8.8,B1
2,-2.5,B2
3,-6.8,B3
4,-8.2,B4

# Target: T1, human TSH receptor (full length), …
# Experiment: inhibition of 125I-K1-70 Fab (competitor) binding to TSHR coated tubes; 1 µg/mL in assay buffer
# Experimental: as §1
row,Inhibition of binding (%),Binder
1,95.2,B1
2,93.5,B2
3,93.1,B3
4,79,B4

# Target: T1, human TSH receptor (full length), …
# Experiment: inhibition of 125I-K1-70 Fab (competitor) binding to TSHR coated tubes; 0.03 µg/mL in HBD serum pool
# Experimental: as §1
row,Inhibition of binding (%),Binder
1,37.8,B1
2,57.2,B2
3,17.2,B3
4,7.9,B4

# Target: T1, human TSH receptor (full length), …
# Experiment: inhibition of 125I-K1-70 Fab (competitor) binding to TSHR coated tubes; 30 µg/mL in assay buffer
# Experimental: as §1
row,Inhibition of binding (%),Binder
1,97.7,B1
2,95.1,B2
3,94.5,B3
4,83.2,B4

# Target: T1, human TSH receptor (full length), …
# Experiment: inhibition of 125I-K1-70 Fab (competitor) binding to TSHR coated tubes; 10 µg/mL in HBD serum pool
# Experimental: as §1
row,Inhibition of binding (%),Binder
1,96.6,B1
2,94.8,B2
3,94.8,B3
4,83.2,B4

# Target: T1, human TSH receptor (full length), …
# Experiment: inhibition of 125I-K1-70 Fab (competitor) binding to TSHR coated tubes; 30 µg/mL in HBD serum pool
# Experimental: as §1
row,Inhibition of binding (%),Binder
1,97.4,B1
2,95.7,B2
3,95.6,B3
4,85.4,B4

# Target: T1, human TSH receptor (full length), …
# Experiment: inhibition of 125I-K1-70 Fab (competitor) binding to TSHR coated tubes; 1 µg/mL in HBD serum pool
# Experimental: as §1
row,Inhibition of binding (%),Binder
1,94.1,B1
2,94.2,B2
3,89.4,B3
4,78.7,B4

# Target: T1, human TSH receptor (full length), …
# Experiment: inhibition of 125I-K1-70 Fab (competitor) binding to TSHR coated tubes; 10 µg/mL in assay buffer
# Experimental: as §1
row,Inhibition of binding (%),Binder
1,96.9,B1
2,93.6,B2
3,94,B3
4,80.8,B4

# Target: T1, human TSH receptor (full length), …
# Experiment: inhibition of 125I-K1-70 Fab (competitor) binding to TSHR coated tubes; 0.3 µg/mL in assay buffer
# Experimental: as §1
row,Inhibition of binding (%),Binder
1,94.2,B1
2,92.7,B2
3,92.6,B3
4,75.9,B4

# Target: T1, human TSH receptor (full length), …
# Experiment: inhibition of 125I-K1-70 Fab (competitor) binding to TSHR coated tubes; 0.01 µg/mL in HBD serum pool
# Experimental: as §1
row,Inhibition of binding (%),Binder
1,10.6,B1
2,25.3,B2
3,2.2,B3
4,-0.8,B4

# Target: T1, human TSH receptor (full length), …
# Experiment: inhibition of 125I-K1-70 Fab (competitor) binding to TSHR coated tubes; 0.1 µg/mL in assay buffer
# Experimental: as §1
row,Inhibition of binding (%),Binder
1,93.5,B1
2,92.2,B2
3,83.6,B3
4,62.9,B4

# Target: T1, human TSH receptor (full length), …
# Experiment: inhibition of 125I-K1-70 Fab (competitor) binding to TSHR coated tubes; 0.003 µg/mL in assay buffer
# Experimental: as §1
row,Inhibition of binding (%),Binder
1,27.7,B1
2,40,B2
3,11.4,B3
4,5,B4

# Target: T1, human TSH receptor (full length), …
# Experiment: inhibition of 125I-K1-70 Fab (competitor) binding to TSHR coated tubes; 0.1 µg/mL in HBD serum pool
# Experimental: as §1
row,Inhibition of binding (%),Binder
1,66.5,B1
2,81.9,B2
3,51,B3
4,36.9,B4

# Target: T1, human TSH receptor (full length), …
# Experiment: inhibition of 125I-K1-70 Fab (competitor) binding to TSHR coated tubes; 3 µg/mL in HBD serum pool
# Experimental: as §1
row,Inhibition of binding (%),Binder
1,96.2,B1
2,94.9,B2
3,93,B3
4,82.6,B4

# Target: T1, human TSH receptor (full length), …
# Experiment: inhibition of 125I-K1-70 Fab (competitor) binding to TSHR coated tubes; 3 µg/mL in assay buffer
# Experimental: as §1
row,Inhibition of binding (%),Binder
1,95.5,B1
2,93.5,B2
3,93.3,B3
4,80.6,B4

# Target: T1, human TSH receptor (full length), …
# Experiment: inhibition of 125I-K1-70 Fab (competitor) binding to TSHR coated tubes; 100 µg/mL in assay buffer
# Experimental: as §1
row,Inhibition of binding (%),Binder
1,97.7,B1
2,96.7,B2
3,95.3,B3
4,86.4,B4

# Target: T1, human TSH receptor (full length), …
# Experiment: inhibition of 125I-K1-70 Fab (competitor) binding to TSHR coated tubes; 0.001 µg/mL in assay buffer
# Experimental: as §1
row,Inhibition of binding (%),Binder
1,5.5,B1
2,11.9,B2
3,5.9,B3
4,3.8,B4

# Target: T1, human TSH receptor (full length), …
# Experiment: inhibition of 125I-K1-70 Fab (competitor) binding to TSHR coated tubes; 0.003 µg/mL in HBD serum pool
# Experimental: as §1
row,Inhibition of binding (%),Binder
1,-0.8,B1
2,2.5,B2
3,-9.4,B3
4,-9.6,B4
